{"source": "patent US12214052", "about": "(dated 2025)", "key": {"[1]": {"molecular_target": "CSP-NPNA5.5-8x-1210 Fab", "assay": "ITC"}, "[2]": {"molecular_target": "CSP-NPNA5.5-10x-1210 Fab", "assay": "ITC"}, "[3]": {"molecular_target": "CSP-NPNA5.5-12x-1210 Fab", "assay": "ITC"}, "[4]": {"molecular_target": "CSP-NPNA5.5-10x-1210 Fab", "assay": "ITC", "remark": "listed apart in the source"}, "[5]": {"molecular_target": "CSP-NPNA5.5-12x-1210 Fab", "assay": "ITC", "remark": "listed apart in the source"}, "[6]": {"molecular_target": "CSP-NPNA5.5-8x-1210 Fab", "assay": "ITC", "remark": "listed apart in the source"}, "[7]": {"molecular_target": "full length PfCSP (NF54 strain) (Plasmodium falciparum (NF54 strain), UniProt P19597 20-384)", "sequence (P19597 20-384)": "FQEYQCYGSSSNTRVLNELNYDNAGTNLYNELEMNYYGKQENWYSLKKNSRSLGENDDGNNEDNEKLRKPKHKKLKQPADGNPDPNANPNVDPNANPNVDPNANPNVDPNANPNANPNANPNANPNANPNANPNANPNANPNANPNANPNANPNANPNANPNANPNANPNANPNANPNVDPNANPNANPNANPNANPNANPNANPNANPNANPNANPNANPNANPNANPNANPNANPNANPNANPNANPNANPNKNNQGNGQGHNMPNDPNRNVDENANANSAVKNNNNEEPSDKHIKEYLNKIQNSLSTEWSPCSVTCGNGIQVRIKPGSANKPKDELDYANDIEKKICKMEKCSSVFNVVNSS", "assay": "BLI; avid"}}}
{"binder": "1210 Fab (Fab, V domains shown) VH: QVQLVESGGGVVQPGRSLRLSCAASGFTFSNYGMHWVRQAPGKGLEWVAVIWYDGSKKYYADSVKGRFTISRDNSKNTLYLQMNSLRAEDTAVYYCARVRDSSDYYGDAFDIWGQGTMVTVSS VL: DIQMTQSPSTLSASVGDRVTITCRASQSISSWLAWYQQKPGKAPKLLIYKASNLESGVPLRFSGSGSGTEFTLTISSLQPDDFATYYCQQYNNYWTFGQGTKVEIK", "values": [{"measurement": "Ka", "setting": "[1]", "result": "3e+06", "unit": "M⁻¹"}, {"measurement": "Kd", "setting": "[2]", "result": 456, "unit": "nM"}, {"measurement": "Kd", "setting": "[3]", "result": 174, "unit": "nM"}, {"measurement": "Ka", "setting": "[4]", "result": "2.19e+06", "unit": "M⁻¹"}, {"measurement": "Ka", "setting": "[5]", "result": "5.73e+06", "unit": "M⁻¹"}, {"measurement": "Kd", "setting": "[6]", "result": 333, "unit": "nM"}]}
{"binder": "antibody 1210 (IgG) (antibody, V domains shown) VH: QVQLVESGGGVVQPGRSLRLSCAASGFTFSNYGMHWVRQAPGKGLEWVAVIWYDGSKKYYADSVKGRFTISRDNSKNTLYLQMNSLRAEDTAVYYCARVRDSSDYYGDAFDIWGQGTMVTVSS VL: DIQMTQSPSTLSASVGDRVTITCRASQSISSWLAWYQQKPGKAPKLLIYKASNLESGVPLRFSGSGSGTEFTLTISSLQPDDFATYYCQQYNNYWTFGQGTKVEIK", "values": [{"measurement": "Kd", "setting": "[7]", "result": "< 0.001", "unit": "nM"}]}
{"binder": "1210_YY IgG (antibody, V domains shown) VH: QVQLVESGGGVVQPGRSLRLSCAASGFTFSNYGMHWVRQAPGKGLEWVAVIWYDGSKKYYADSVKGRFTISRDNSKNTLYLQMNSLRAEDTAVYYCARVRDSSYYYGDAFDIWGQGTMVTVSS VL: DIQMTQSPSTLSASVGDRVTITCRASQSISSWLAWYQQKPGKAPKLLIYKASNLESGVPLRFSGSGSGTEFTLTISSLQPDDFATYYCQQYYNYWTFGQGTKVEIK", "values": [{"measurement": "Kd", "setting": "[7]", "result": 0.66, "unit": "nM"}]}
